Test results taken from patent publication US20200199234A1 (published 2020).

How the values were obtained:
[1] = molecular target: T1, huCD28-Fc, dimeric human CD28 extracellular domain fused to human IgG1 Fc (knob/hole, PG-LALA), monovalent … (human, UniProt P10747 19-152, biotin on C-terminal avi tag); assay: from SPR KD values
T1 construct: also called biotinylated huCD28-Fc antigen; not shown: human IgG1 Fc fragment with hole and PG-LALA mutations; human IgG1 Fc fragment with knob and PG-LALA mutations

[2] = molecular target: human CD28 expressed on cells (CHO-k1 stably overexpressing human CD28; T cells in functional assays) (human, UniProt P10747 19-220); assay: cell-based or functional assay
N(A2B2)A-avi-His [3] = molecular target: T2, N(A2B2)A-avi-His (human, biotinylated avi-tag); assay: SPR ProteOn, purified Fab
T2 construct: also called biotinylated N(A2B2)A-avi-His
T2 chain: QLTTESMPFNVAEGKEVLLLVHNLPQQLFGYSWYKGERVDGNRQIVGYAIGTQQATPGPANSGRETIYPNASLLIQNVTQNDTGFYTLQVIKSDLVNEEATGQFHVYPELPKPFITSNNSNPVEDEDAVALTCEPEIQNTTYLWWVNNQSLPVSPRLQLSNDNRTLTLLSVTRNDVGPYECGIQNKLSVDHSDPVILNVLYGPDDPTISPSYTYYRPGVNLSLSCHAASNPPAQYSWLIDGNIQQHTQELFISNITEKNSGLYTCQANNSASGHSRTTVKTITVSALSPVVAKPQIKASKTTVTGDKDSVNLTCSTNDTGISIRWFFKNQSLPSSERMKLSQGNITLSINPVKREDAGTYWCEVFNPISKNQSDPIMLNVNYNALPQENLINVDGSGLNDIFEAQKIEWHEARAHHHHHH

N(A2B2)A-avi-His [4] = molecular target: T2, N(A2B2)A-avi-His; assay: SPR ProteOn, purified bispecific IgG
[5] = molecular target: T3, human CEA (CEACAM5) expressed on cells (MKN45; MV3 engineered to express human CEACAM5) (human, UniProt P06731 35-685); assay: flow cytometry on MV3 cells expressing CEA
T3 sequence: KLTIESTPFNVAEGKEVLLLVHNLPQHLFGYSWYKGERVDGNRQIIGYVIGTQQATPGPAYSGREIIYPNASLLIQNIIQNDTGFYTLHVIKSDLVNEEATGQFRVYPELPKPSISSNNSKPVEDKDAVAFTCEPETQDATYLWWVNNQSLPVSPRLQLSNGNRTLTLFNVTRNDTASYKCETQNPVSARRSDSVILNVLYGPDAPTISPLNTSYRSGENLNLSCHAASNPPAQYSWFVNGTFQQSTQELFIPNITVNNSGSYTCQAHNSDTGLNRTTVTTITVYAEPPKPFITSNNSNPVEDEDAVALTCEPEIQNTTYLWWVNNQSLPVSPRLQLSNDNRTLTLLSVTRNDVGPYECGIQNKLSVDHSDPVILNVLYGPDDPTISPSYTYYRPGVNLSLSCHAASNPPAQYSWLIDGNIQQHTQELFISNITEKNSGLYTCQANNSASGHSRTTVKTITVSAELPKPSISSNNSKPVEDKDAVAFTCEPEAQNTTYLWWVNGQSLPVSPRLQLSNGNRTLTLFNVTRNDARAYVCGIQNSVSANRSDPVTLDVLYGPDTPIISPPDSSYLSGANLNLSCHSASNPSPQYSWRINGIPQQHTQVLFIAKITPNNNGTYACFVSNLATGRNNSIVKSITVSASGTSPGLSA

[6] = molecular target: T4, human HER3 on T-47D cells (human, UniProt P21860 20-1342); assay: flow cytometry
T4 construct: also called ErbB3

[7] = molecular target: T5, Hu N(A2-B2)A-avi-His, chimeric CEACAM1 protein with CEACAM5 domains A2 and B2 (human, biotinylated avi-tag (Example 2.2)); assay: SPR ProteOn, biotinylated antigen on NLC chip
T5 construct: also called hu N(A2-B2)A-avi-His B; human CEA (A2 domain)
T5 chain: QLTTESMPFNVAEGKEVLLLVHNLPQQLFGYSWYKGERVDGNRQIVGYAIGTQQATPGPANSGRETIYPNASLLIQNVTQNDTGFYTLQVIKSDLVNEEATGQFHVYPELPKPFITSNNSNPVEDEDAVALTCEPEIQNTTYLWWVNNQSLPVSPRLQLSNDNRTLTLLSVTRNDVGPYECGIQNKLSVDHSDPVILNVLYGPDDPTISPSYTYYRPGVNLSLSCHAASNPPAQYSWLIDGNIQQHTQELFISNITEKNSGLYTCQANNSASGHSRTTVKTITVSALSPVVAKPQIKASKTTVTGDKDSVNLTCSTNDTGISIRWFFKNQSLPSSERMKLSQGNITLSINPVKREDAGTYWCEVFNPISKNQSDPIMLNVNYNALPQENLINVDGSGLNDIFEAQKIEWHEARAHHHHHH

B1: FAP (4B9) - CD28 (CD28(SA)_Variant 8) 1+1 (bispecific antibody, human IgG1, kappa, L234A L235A)
heavy 1: EIVLTQSPGTLSLSPGERATLSCRASQSVTSSYLAWYQQKPGQAPRLLINVGSRRATGIPDRFSGSGSGTDFTLTISRLEPEDFAVYYCQQGIMLPPTFGQGTKVEIKSSASTKGPSVFPLAPSSKSTSGGTAALGCLVKDYFPEPVTVSWNSGALTSGVHTFPAVLQSSGLYSLSSVVTVPSSSLGTQTYICNVNHKPSNTKVDKKVEPKSCDKTHTCPPCPAPEAAGGPSVFLFPPKPKDTLMISRTPEVTCVVVDVSHEDPEVKFNWYVDGVEVHNAKTKPREEQYNSTYRVVSVLTVLHQDWLNGKEYKCKVSNKALGAPIEKTISKAKGQPREPQVCTLPPSRDELTKNQVSLSCAVKGFYPSDIAVEWESNGQPENNYKTTPPVLDSDGSFFLVSKLTVDKSRWQQGNVFSCSVMHEALHNHYTQKSLSLSP
light 1: EVQLLESGGGLVQPGGSLRLSCAASGFTFSSYAMSWVRQAPGKGLEWVSAIIGSGASTYYADSVKGRFTISRDNSKNTLYLQMNSLRAEDTAVYYCAKGWFGGFNYWGQGTLVTVSSASVAAPSVFIFPPSDEQLKSGTASVVCLLNNFYPREAKVQWKVDNALQSGNSQESVTEQDSKDSTYSLSSTLTLSKADYEKHKVYACEVTHQGLSSPVTKSFNRGEC
heavy 2: not shown
light 2: not shown
notes: also called P1AE3131
Q: How did the “fold reduction of affinity compared to the parental CD28 clone” value [1] turn out when B1 was run?
A: ~20 fold

Q: And the “EC50 killing (nM), TCB-mediated killing of MV3 target cells” value [2]?
A: 2.33 nM

B2: P001.177 Fab fragment (Fab, V domains shown)
VH: EVQLLESGGGLVQPGGSLRLSCAASGFYFTDYYMNWVRQAPGKGLEWLGFISNKANAYTTEYSASVKGRFTISRDKSKNTLYLQMNSLRAEDTATYYCTRDRGLRFYFDYWGQGTTVTVSS
VL: EIVLTQSPATLSLSPGERATLSCRASSSVTYIHWYQQKPGQAPRSWIYATSNLASGIPARFSGSGSGTDFTLTISSLEPEDFAVYYCQHWSSKPPTFGQGTKLEIK
Q: With B2 as the binder, how does the koff (N(A2B2)A-avi-His [3]) read?
A: 0.000785 s⁻¹

B3: P005.102 Fab fragment (Fab, V domains shown)
VH: EVQLLESGGGLVQPGGSLRLSCAASGFTFTDYYMNWVRQAPGKGLEWLGFIGNKANAYTTEYSASVKGRFTISRDKSKNTLYLQMNSLRAEDTATYYCTRDRGIRFQFDYWGQGTTVTVSS
VL: EIVLTQSPATLSLSPGERATLSCRASSSVTYIHWYQQKPGQAPRSWIYATSNLASGIPARFSGSGSGTDFTLTISSLEPEDFAVYYCQHWSSKSPTFGQGTKLEIK
Q: For B3, which koff (N(A2B2)A-avi-His [3]) is on record?
A: 0.000392 s⁻¹

B4: CEA(P006.038-combo1)-CD28(SA_Variant 15) bispecific 1+1 IgG (bispecific antibody)
heavy 1: EIVLTQSPATLSLSPGERATLSCRASSSVTYIHWYQQKPGQAPRSWIYATSNLASGIPARFSGSGSGTDFTLTISSLEPEDFAVYYCQHWSSVPPTFGQGTKLEIKSSASTKGPSVFPLAPSSKSTSGGTAALGCLVKDYFPEPVTVSWNSGALTSGVHTFPAVLQSSGLYSLSSVVTVPSSSLGTQTYICNVNHKPSNTKVDKKVEPKSCDKTHTCPPCPAPEAAGGPSVFLFPPKPKDTLMISRTPEVTCVVVDVSHEDPEVKFNWYVDGVEVHNAKTKPREEQYNSTYRVVSVLTVLHQDWLNGKEYKCKVSNKALGAPIEKTISKAKGQPREPQVCTLPPSRDELTKNQVSLSCAVKGFYPSDIAVEWESNGQPENNYKTTPPVLDSDGSFFLVSKLTVDKSRWQQGNVFSCSVMHEALHNHYTQKSLSLSP
light 1: EVQLLESGGGLVQPGGSLRLSCAASGFYFTDYAMNWVRQAPGKGLEWLGVISNKANAYTTEYSASVKGRFTISRDKSKNTLYLQMNSLRAEDTATYYCTRDRGIRFGFDYWGQGTTVTVSSASVAAPSVFIFPPSDEQLKSGTASVVCLLNNFYPREAKVQWKVDNALQSGNSQESVTEQDSKDSTYSLSSTLTLSKADYEKHKVYACEVTHQGLSSPVTKSFNRGEC
heavy 2: not shown
light 2: not shown
Q: B4 was tested. Which koff (N(A2B2)A-avi-His [4]) did it give?
A: 7.99e-05 s⁻¹

B5: Molecule 11R: CEA (P002.139)-CD28 (SA_Variant 15) 1+1 format (bispecific antibody)
heavy 1: EIVLTQSPATLSLSPGERATLSCHASSSVTYIHWYQQKPGQAPRSWIYATSNLASGIPARFSGSGSGTDFTLTISSLEPEDFAVYYCQHWSSKPPTFGQGTKLEIKSSASTKGPSVFPLAPSSKSTSGGTAALGCLVKDYFPEPVTVSWNSGALTSGVHTFPAVLQSSGLYSLSSVVTVPSSSLGTQTYICNVNHKPSNTKVDKKVEPKSCDKTHTCPPCPAPEAAGGPSVFLFPPKPKDTLMISRTPEVTCVVVDVSHEDPEVKFNWYVDGVEVHNAKTKPREEQYNSTYRVVSVLTVLHQDWLNGKEYKCKVSNKALGAPIEKTISKAKGQPREPQVCTLPPSRDELTKNQVSLSCAVKGFYPSDIAVEWESNGQPENNYKTTPPVLDSDGSFFLVSKLTVDKSRWQQGNVFSCSVMHEALHNHYTQKSLSLSP
light 1: EVQLLESGGGLVQPGGSLRLSCAASGFYFTDYAMNWVRQAPGKGLEWLGVISNKANAYTTEYSASVKGRFTISRDKSKNTLYLQMNSLRAEDTATYYCTRDRGLRFYFDYWGQGTTVTVSSASVAAPSVFIFPPSDEQLKSGTASVVCLLNNFYPREAKVQWKVDNALQSGNSQESVTEQDSKDSTYSLSSTLTLSKADYEKHKVYACEVTHQGLSSPVTKSFNRGEC
heavy 2: not shown
light 2: not shown
notes: also called P1AE8371
Q: B5 was tested. Which EC50 [5] did it give?
A: 4.1 nM

B6: Molecule 14B: HER3(lumretuzumab)-CD28 (SA_Variant 15) 1+1 format (bispecific antibody, human IgG1, kappa, L234A L235A)
heavy 1: not shown
light 1: not shown
heavy 2: DIVMTQSPDSLAVSLGERATINCKSSQSVLNSGNQKNYLTWYQQKPGQPPKLLIYWASTRESGVPDRFSGSGSGTDFTLTISSLQAEDVAVYYCQSDYSYPYTFGQGTKLEIKSSASTKGPSVFPLAPSSKSTSGGTAALGCLVKDYFPEPVTVSWNSGALTSGVHTFPAVLQSSGLYSLSSVVTVPSSSLGTQTYICNVNHKPSNTKVDKKVEPKSCDKTHTCPPCPAPEAAGGPSVFLFPPKPKDTLMISRTPEVTCVVVDVSHEDPEVKFNWYVDGVEVHNAKTKPREEQYNSTYRVVSVLTVLHQDWLNGKEYKCKVSNKALGAPIEKTISKAKGQPREPQVCTLPPSRDELTKNQVSLSCAVKGFYPSDIAVEWESNGQPENNYKTTPPVLDSDGSFFLVSKLTVDKSRWQQGNVFSCSVMHEALHNHYTQKSLSLSP
light 2: QVQLVQSGAEVKKPGASVKVSCKASGYTFRSSYISWVRQAPGQGLEWMGWIYAGTGSPSYNQKLQGRVTMTTDTSTSTAYMELRSLRSDDTAVYYCARHRDYYSNSLTYWGQGTLVTVSSASVAAPSVFIFPPSDEQLKSGTASVVCLLNNFYPREAKVQWKVDNALQSGNSQESVTEQDSKDSTYSLSSTLTLSKADYEKHKVYACEVTHQGLSSPVTKSFNRGEC
notes: also called P1AF0151; HER3-CD28
Q: Does B6 bind [6]?
A: binds

B7: Molecule M: CEA-CD28(SA) 1+1 format (bispecific antibody, human IgG1, kappa, L234A L235A)
light 1: not shown
heavy 1: not shown
heavy 2: QAVLTQPASLSASPGASASLTCTLRRGINVGAYSIYWYQQKPGSPPQYLLRYKSDSDKQQGSGVSSRFSASKDASANAGILLISGLQSEDEADYYCMIWHSGASAVFGGGTKLTVLSSASTKGPSVFPLAPSSKSTSGGTAALGCLVKDYFPEPVTVSWNSGALTSGVHTFPAVLQSSGLYSLSSVVTVPSSSLGTQTYICNVNHKPSNTKVDKKVEPKSCDKTHTCPPCPAPEAAGGPSVFLFPPKPKDTLMISRTPEVTCVVVDVSHEDPEVKFNWYVDGVEVHNAKTKPREEQYNSTYRVVSVLTVLHQDWLNGKEYKCKVSNKALGAPIEKTISKAKGQPREPQVCTLPPSRDELTKNQVSLSCAVKGFYPSDIAVEWESNGQPENNYKTTPPVLDSDGSFFLVSKLTVDKSRWQQGNVFSCSVMHEALHNHYTQKSLSLSP
light 2: EVQLVESGGGLVQPGRSLRLSCAASGFTVSSYWMHWVRQAPGKGLEWVGFIRNKANGGTTEYAASVKGRFTISRDDSKNTLYLQMNSLRAEDTAVYYCARDRGLRFYFDYWGQGTTVTVSSASVAAPSVFIFPPSDEQLKSGTASVVCLLNNFYPREAKVQWKVDNALQSGNSQESVTEQDSKDSTYSLSSTLTLSKADYEKHKVYACEVTHQGLSSPVTKSFNRGEC
notes: anti-CEA arm is Medi-565; also called P1AE3127
Q: How did the Kd [7] turn out when B7 was run?
A: 0.29 nM
